Laboratory results reported in the supplement of paper PMC10724198.
± gives the standard deviation of the averaged measurements.

System: Saccharomyces cerevisiae
Test: protein stability index of tFT-peptide fusion (C-terminal peptide) (PSI (0-1 scale)); higher = more stable (slower turnover)
Conditions: genetic background: wild type; temperature: 30 C
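Note: PSI is a weighted mean of sequencing reads over stability bins, variants kept only with over 10 reads, mCherry proximal and sfGFP distal, peptide attached via GGGS linker.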

Sequence	protein stability index
VPSLPSPCSSCA	0.667 ± 0.046
VPSRTVTGTLPA	0.681 ± 0.026
VPSVCPFLSVLL	0.647 ± 0.035
VPSVGFSVHLLP	0.692 ± 0.021
VPVAAVGGGECG	0.575 ± 0.044
VPWGGLRFRDWW	0.659 ± 0.099
VPYGKILQQGDI	0.658 ± 0.048
VQEEGYYLHSSL	0.699 ± 0.021
VQLGLGPDSSRS	0.694 ± 0.019
VQSGIRLIFGRA	0.545 ± 0.014
VQVSGFPHSRTR	0.691 ± 0.023
VQYGHIVKGWCS	0.697 ± 0.013
VRAAAFCFVRFR	0.55 ± 0.021
VRAEVSNVDYVS	0.658 ± 0.0096
VRALCRYRTVNG	0.685 ± 0.035
VRAVFPRSGLSC	0.696 ± 0.048
VRCRLLDVGDAS	0.642 ± 0.026
VRCSAASLKVRK	0.675 ± 0.01
VRDRTSRGMRPA	0.6945 ± 0.0043
VRDTTRTEKLGP	0.687 ± 0.002
VREGKDREVSGF	0.715 ± 0.031
VREKNHTLQMET	0.646 ± 0.017
VRGGGRRACVVG	0.607 ± 0.05
VRGGLVGRSVGC	0.559 ± 0.08
VRGKGWRVGWWG	0.668 ± 0.045

Sequence	protein stability index
VRGRQGGGVGRA	0.682 ± 0.1
VRHLGAIPQLSG	0.637 ± 0.095
VRHSLFPCPSPT	0.714 ± 0.035
VRHSPVVPANRP	0.698 ± 0.094
VRIRRNGAVSFM	0.6829 ± 0.0038
VRITRPFKAPTP	0.711 ± 0.0056
VRLWLSLRLGFS	0.587 ± 0.068
VRNASEDSVGQL	0.708 ± 0.046
VRNESGGRAAAS	0.6988 ± 0.0016
VRQLRGPWMEYP	0.682 ± 0.076
VRRGAAGDDWGW	0.869 ± 0.057
VRRGCGVGACPG	0.618 ± 0.017
VRRILLGPPGRD	0.653 ± 0.085
VRRMLSSLIEGH	0.619 ± 0.0072
VRRSHSGSNDVP	0.673 ± 0.14
VRSCCFFLDAVW	0.665 ± 0.029
VRSCFPVGMVWR	0.72087 ± 0.00045
VRSLSSPPAPAT	0.736 ± 0.038
VRSPLEHTVPFS	0.655 ± 0.057
VRSRRQLPPADP	0.723 ± 0.083
VRSYLARFEVYV	0.531 ± 0.019
VRTSWRHESIKK	0.618 ± 0.019
VRVRPAVRSGPE	0.616 ± 0.006
VSCFVWFGFSCI	0.5202 ± 0.0034
VSCPGWVVHVIV	0.48 ± 0.079

Sequence	protein stability index
VSDLFWAELIGN	0.71 ± 5.7e-06
VSGGRQGGWGGW	0.691 ± 0.034
VSGWDCEGDWVA	0.76 ± 0.0096
VSLGHCGFYSRV	0.648 ± 0.039
VSLLSSDTRSAY	0.753 ± 0.07
VSLPTAPFPLPS	0.844 ± 0.084
VSLVYLDHLSRS	0.702 ± 0.029
VSPLVRVFSCAI	0.598 ± 0.033
VSQKQALVCPRI	0.705 ± 0.085
VSRGRSAKKSAI	0.695 ± 0.06
VSRTVLSSDHRG	0.752 ± 0.076
VSRYRQWGSWER	0.649 ± 0.013
VSSRHNCFRHGS	0.696 ± 0.039
VSTLAPPQLQFK	0.669 ± 0.081
VSVGCLFVVGRG	0.713 ± 0.039
VSWVYNFKKIRS	0.694 ± 0.078
VTCADEYYHSRR	0.686 ± 0.03
VTECLRQWERLG	0.545 ± 0.045
VTFTERIAIEWD	0.703 ± 0.054
VTGIDGGSLCLR	0.6842 ± 0.0059
VTGRTGGMWGAL	0.754 ± 0.085
VTKNRHRQTETQ	0.658 ± 0.036
VTLSPSLPGFPL	0.6839 ± 0.00089
VTLTPPVLYTSL	0.647 ± 0.059
VTVDLGCRATGE	0.675 ± 0.067

Sequence	protein stability index
VTVGGAWSGTRG	0.647 ± 0.06
VTWNTLENMNLV	0.673 ± 0.032
VTYFIPVTNRAS	0.605 ± 0.0074
VVAERFADAKGS	0.653 ± 0.025
VVAVGHWFDGGV	0.623 ± 0.045
VVCFLVHGWGGW	0.638 ± 0.048
VVCLGGGVLPRV	0.654 ± 0.081
VVCRDGLSSCVG	0.623 ± 0.019
VVCSSGFVSDPG	0.5582 ± 0.0049
VVDGGEHVCYRI	0.654 ± 0.082
VVFSPQFRLPVP	0.66 ± 0.024
VVGFVRPGMQGL	0.673 ± 0.052
VVGGVGLGLWKV	0.659 ± 0.097
VVGRTNRYAVPH	0.662 ± 0.061
VVILGSMHLCSV	0.561 ± 0.016
VVLFPILKLLSN	0.53 ± 0.015
VVLWLASGVGGG	0.75 ± 0.061
VVMLSLVALGRV	0.523 ± 0.026
VVQEIGGSVRRE	0.6814 ± 0.0035
VVRALSTQVCLP	0.645 ± 0.098
VVRFEGYVLGWG	0.647 ± 0.072
VVRKVALVALPL	0.574 ± 0.05
VVRLKRLPPCSS	0.699 ± 0.077
VVRSDFCFFFGI	0.754 ± 0.065
VVRWFGGGCVRG	0.682 ± 0.033

Sequence	protein stability index
VVSGDAPVARRA	0.6781 ± 0.0056
VVSGSHSVLYGS	0.71 ± 0.028
VVSKMGFGAALV	0.654 ± 0.085
VVSRLCCTRIRQ	0.701 ± 0.04
VVSSAYRLKARP	0.696 ± 0.046
VVSSFHYTSRQC	0.744 ± 0.1
VVTRANVRRDKM	0.672 ± 0.023
VVVCGSSVLVLT	0.555 ± 0.041
VVVLVGGGWVCV	0.51 ± 0.035
VVVSGGGQGFWL	0.757 ± 0.064
VVWGLGAGRMVW	0.656 ± 0.076
VVWRCCGRGAEG	0.6457 ± 0.0016
VVYFARGDNVYA	0.682 ± 0.05
VWCGVLVRSCWV	0.52 ± 0.0091
VWCVGRVGYEGE	0.783 ± 0.1
VWFDPHEFIVIA	0.59 ± 0.027
VWFGLLTTVNID	0.5657 ± 0.0048
VWGGLAVVTGWA	0.612 ± 0.073
VWGGLGGGVGRA	0.668 ± 0.014
VWGVCAVFGCAG	0.644 ± 0.12
VWKEPVQYSRQL	0.626 ± 0.051
VWLAGVMVGRFQ	0.5575 ± 0.0039
VWLWCDLSRGWI	0.733 ± 0.013
VWNLELFFTLAT	0.6331 ± 0.001
VWVVSGRGGWWG	0.6336 ± 0.0033

Sequence	protein stability index
VWVWATGWGARG	0.7369 ± 0.0038
VYCIEFNRQWDA	0.693 ± 0.048
VYEGLRSGPRSL	0.718 ± 0.093
VYEIQCGSNFKG	0.7 ± 0.052
VYHFPDLFPLGI	0.7078 ± 0.0027
VYKLDLEEENRS	0.654 ± 0.072
WAAWYPGEHPVP	0.755 ± 0.12
WAIPSSPQYKRA	0.676 ± 0.031
WARVESFTSKTQ	0.6028 ± 0.0045
WCLGLGCVWGGW	0.779 ± 0.092
WCRGVGSWRGRG	0.688 ± 0.008
WCVEGVWRVRGW	0.649 ± 0.044
WDFLLQGISSPR	0.767 ± 0.12
WDGWPTRWGGTG	0.705 ± 0.017
WEGAGGGFGLVV	0.712 ± 0.05
WELPNRANDLSH	0.769 ± 0.11
WENKKRMIRQKL	0.526 ± 0.016
WERGKGGLVMEG	0.646 ± 0.0067
WEWLQAKCFLSQ	0.688 ± 0.086
WFDVVALPCLSF	0.562 ± 0.0084
WFFSNLRRDCGG	0.735 ± 0.016
